Source: paper PMC6971206

What was measured:
[1] = target: bc1 complex (Complex III), dimer (S. cerevisiae (endogenous in BY4741 mitochondria)) (UniProt P07256); experiment: native gel or EMSA; BN-PAGE (3-12% NativePage Bis-Tris) of mitochondria solubilised in 2% digitonin, then Western blot or second-dimension SDS-PAGE and immuno decoration; comigration; cells grown in YPGal, YPD or YPG; wild type, rcf1Δ, rcf2Δ and truncation strains
[2] = target: respiratory supercomplexes (III2IV and III2IV2) of bc1 complex and cytochrome c oxidase (S. cerevisiae (endogenous in BY4741 mitochondria)) (UniProt P07256); experiment: as above

Molecule “cytochrome c oxidase (Complex IV), monomeric (from UniProt P00401 1-534; P00410 16-251; P00420 1-269; P04037 26-155; P00424 21-153; P00427 41-148; Q01519 1-83; P32799 10-129)” has a fold change of the share residing in supercomplexes, YPG against YPD [1] of 1.4 fold.

B1: Rcf1 (respiratory supercomplex factor 1) (natural protein)
chain: MSRMPSSFDVTERDLDDMTFGERIIYHCKKQPLVPIGCLLTTGAVILAAQNVRLGNKWKAQYYFRWRVGLQAATLVALVAGSFIYGTSGKELKAKEEQLKEKAKMREKLWIQELERREEETEARRKRAELARMKTLENEEEIKNLEKELSDLENKLGKK
B1 gave a fold change of the share residing in supercomplexes, YPG against YPD [2] of 2.5 fold.

B2: Rcf2 (respiratory supercomplex factor 2) (natural protein)
chain: MKILTQDEIEAHRSHTLKGGIEGALAGFAISAIIFKVLPRRYPKFKPSTLTWSIKTALWITPPTVLTAICAEEASNNFDATMYGSGSSSEDALDEHRRWKSLSTKDKFVEGLSNNKYKIITGAWAASLYGSWVIVNKDPIMTKAQKIVQARMYAQFITVGLLLASVGLSMYENKLHPNKQKVNEMRRWENALRVAEEEERLEKEGRRTGYVSNEERINSKIFKS
With B2 the fold change of the share residing in supercomplexes, YPG against YPD [2] was 3.7 fold.
